Source: publication PMC3789764

Target: Ku70 (in Ku70/Ku80ΔC);Ku80ΔC (in Ku70/Ku80ΔC) (human;human, UniProt P12956;P13010 1-609;1-590, |)
Assay: EMSA
Conditions: protein: recombinant;recombinant; tags: N-terminal Strep tag II;; copies: 1;1

Chain of Ku70 (in Ku70/Ku80ΔC);Ku80ΔC (in Ku70/Ku80ΔC) (P12956 whole entry, stated change not applied, chain 1 of 2): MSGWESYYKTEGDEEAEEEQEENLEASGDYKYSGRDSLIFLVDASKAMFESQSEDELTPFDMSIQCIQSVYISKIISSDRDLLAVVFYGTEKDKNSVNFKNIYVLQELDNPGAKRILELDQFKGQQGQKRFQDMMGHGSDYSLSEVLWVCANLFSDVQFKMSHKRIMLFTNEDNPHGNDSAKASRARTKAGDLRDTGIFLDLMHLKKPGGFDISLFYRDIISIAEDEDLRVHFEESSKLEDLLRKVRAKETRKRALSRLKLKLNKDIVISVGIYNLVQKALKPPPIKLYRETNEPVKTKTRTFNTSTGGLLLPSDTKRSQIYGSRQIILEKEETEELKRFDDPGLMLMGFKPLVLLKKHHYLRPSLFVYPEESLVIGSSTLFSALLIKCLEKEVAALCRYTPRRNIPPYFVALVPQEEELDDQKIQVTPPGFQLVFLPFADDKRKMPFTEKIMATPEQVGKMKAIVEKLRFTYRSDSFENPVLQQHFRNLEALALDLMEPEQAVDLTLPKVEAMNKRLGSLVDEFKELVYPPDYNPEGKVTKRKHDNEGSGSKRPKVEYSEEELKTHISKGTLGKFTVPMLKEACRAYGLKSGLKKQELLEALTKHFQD
Chain of Ku70 (in Ku70/Ku80ΔC);Ku80ΔC (in Ku70/Ku80ΔC) (P13010 1-590, stated change not applied, chain 2 of 2): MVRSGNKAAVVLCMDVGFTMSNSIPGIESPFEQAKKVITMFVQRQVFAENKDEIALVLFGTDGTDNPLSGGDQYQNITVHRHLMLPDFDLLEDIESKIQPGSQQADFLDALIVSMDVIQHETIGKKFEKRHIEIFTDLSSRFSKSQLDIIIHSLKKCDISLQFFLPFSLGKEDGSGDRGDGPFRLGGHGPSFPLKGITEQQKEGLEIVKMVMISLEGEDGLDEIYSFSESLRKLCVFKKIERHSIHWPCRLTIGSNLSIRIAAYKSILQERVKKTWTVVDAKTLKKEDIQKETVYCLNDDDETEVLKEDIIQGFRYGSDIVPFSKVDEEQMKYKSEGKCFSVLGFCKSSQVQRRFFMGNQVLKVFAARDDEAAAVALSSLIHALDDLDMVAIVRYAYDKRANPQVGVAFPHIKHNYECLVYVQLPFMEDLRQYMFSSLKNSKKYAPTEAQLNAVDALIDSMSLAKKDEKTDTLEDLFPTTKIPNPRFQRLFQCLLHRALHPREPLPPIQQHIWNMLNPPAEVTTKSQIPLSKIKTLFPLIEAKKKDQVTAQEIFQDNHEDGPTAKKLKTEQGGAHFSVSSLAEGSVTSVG

B1: Cy3 19-bp duplex (dsDNA)
DNA 1: GAAAGCTATGGGCGCGGTT
DNA 2: AACCGCGCCCATAGCTTTC
  binding result: binds
